Publication PMC11006747, “The E3 ubiquitin ligase ITCH negatively regulates intercellular communication via gap junctions by targeting connexin43 for lysosomal degradation” (Cellular and Molecular Life Sciences: CMLS, 2024)

Target: T1, Cx43-WT (human connexin43, transiently expressed) (human, UniProt P17302 1-382)
T1 construct: human connexin43 (Cx43; gene GJA1) from the expression plasmid pcDNA I/Neo; source: HeLa cells negative for Cx43, transfected (pcDNA I/Neo), in lysate
Test: co-IP; lysates of HeLa cells negative for Cx43, co-transfected 48 h with Cx43-WT or Cx43-P283A and HA-ITCH-WT, immunoprecipitated with anti-Cx43 antibodies cross-linked to protein A-Sepharose, 2 h at 4 °C; HA-ITCH detected by western blot with anti-HA and normalised to Cx43 in the immunoprecipitate; in one experiment cells treated with DMSO or bafilomycin A1 (200 nM) for the last 18 h; rabbit IgG as control
Conditions: partners not purified

T1 sequence (P17302 whole entry): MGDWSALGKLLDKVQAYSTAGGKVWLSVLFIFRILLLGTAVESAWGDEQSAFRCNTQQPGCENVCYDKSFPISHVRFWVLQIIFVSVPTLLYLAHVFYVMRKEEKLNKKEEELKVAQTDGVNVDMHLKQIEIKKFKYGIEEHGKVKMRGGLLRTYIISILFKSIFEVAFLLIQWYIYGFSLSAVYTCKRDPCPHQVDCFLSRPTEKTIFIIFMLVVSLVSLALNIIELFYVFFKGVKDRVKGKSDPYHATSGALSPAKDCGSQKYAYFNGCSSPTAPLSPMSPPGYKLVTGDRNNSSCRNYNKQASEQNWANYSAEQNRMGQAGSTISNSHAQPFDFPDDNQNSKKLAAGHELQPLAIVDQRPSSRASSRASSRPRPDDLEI

B1: HA-ITCH-wild type (enzyme)
chain: not shown
notes: E3 ubiquitin ligase ITCH, wild type, gene synthesised (GeneArt, Thermo Fisher); Isoform inferred only from the printed number of the catalytic cysteine (C830A mutant of the same cDNA); also called HA-ITCH-WT; source: HeLa cells negative for Cx43, transfected (pcDNA3.4-TOPO), in lysate
Q: With B1 as the binder, how does the “fold increase of co-immunoprecipitated HA-ITCH with bafilomycin A1 against DMSO” value read?
A: ~4 fold
